In article PMC4687643, “SH3 Domains Differentially Stimulate Distinct Dynamin I Assembly Modes and G Domain Activity” (PLoS ONE, 2015):

How the values were obtained:
Experiment in all cases: cell-based or functional assay
[1] = molecular target: T1, GST-amphiphysin II SH3 domain (human, UniProt O00499 520-593)
T1 sequence (looked up): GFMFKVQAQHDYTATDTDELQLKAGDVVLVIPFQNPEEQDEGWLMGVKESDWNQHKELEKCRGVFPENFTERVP

[2] = molecular target: T2, GST-sorting-nexin 9 (SNX9) SH3 domain (human, UniProt Q9Y5X1 1-62)
[3] = molecular target: T3, GST-endophilin I SH3 domain (mouse, UniProt Q62420 290-349)
[4] = molecular target: GST-intersectin I SH3C domain (Xenopus laevis)
[5] = molecular target: T4, GST-Formin Binding Protein 17 (FBP17) SH3 domain (human, UniProt Q96RU3 550-611)
T4 sequence (looked up): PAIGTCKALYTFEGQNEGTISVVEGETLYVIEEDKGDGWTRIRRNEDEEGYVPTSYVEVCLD

[6] = molecular target: T5, GST-Cdc42 interacting protein 4 (CIP4) SH3 domain (human, UniProt Q15642 540-601)
T5 sequence (looked up): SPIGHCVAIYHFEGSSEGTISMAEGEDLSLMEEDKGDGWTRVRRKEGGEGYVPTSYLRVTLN

GST-cortactin SH3 domain [7] = molecular target: T6, GST-cortactin SH3 domain (mouse, UniProt Q60598 488-546)
[8] = molecular target: GST-intersectin I SH3E domain (Xenopus laevis)
[9] = molecular target: T7, GST-Actin binding protein 1 (Abp1) SH3 domain (mouse, UniProt Q62418 377-436)
[10] = molecular target: GST-intersectin I SH3A domain (Xenopus laevis)
[11] = molecular target: T8, GST-syndapin I SH3 domain (mouse, UniProt Q61644 382-441)
GST-p85 SH3 domain [12] = molecular target: T9, GST-p85 SH3 domain (bovine, UniProt P23727 3-79)
[13] = molecular target: T10, GST-amphiphysin I SH3 domain (human, UniProt P49418 622-695)
T10 sequence (looked up): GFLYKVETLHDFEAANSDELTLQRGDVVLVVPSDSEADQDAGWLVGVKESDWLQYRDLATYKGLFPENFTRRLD

[14] = molecular target: T1, GST-amphiphysin II SH3 domain; remark: listed apart in the source
[15] = molecular target: T2, GST-sorting-nexin 9 (SNX9) SH3 domain; remark: listed apart in the source
[16] = molecular target: T3, GST-endophilin I SH3 domain; remark: listed apart in the source
[17] = molecular target: GST-intersectin I SH3C domain (Xenopus laevis); remark: listed apart in the source
[18] = molecular target: T4, GST-Formin Binding Protein 17 (FBP17) …; remark: listed apart in the source
[19] = molecular target: T5, GST-Cdc42 interacting protein 4 (CIP4) …; remark: listed apart in the source
GST-cortactin SH3 domain [20] = molecular target: T6, GST-cortactin SH3 domain; remark: listed apart in the source
[21] = molecular target: GST-intersectin I SH3E domain (Xenopus laevis); remark: listed apart in the source
[22] = molecular target: T7, GST-Actin binding protein 1 (Abp1) SH3 …; remark: listed apart in the source
[23] = molecular target: GST-intersectin I SH3A domain (Xenopus laevis); remark: listed apart in the source
[24] = molecular target: T8, GST-syndapin I SH3 domain; remark: listed apart in the source
GST-p85 SH3 domain [25] = molecular target: T9, GST-p85 SH3 domain; remark: listed apart in the source
[26] = molecular target: T10, GST-amphiphysin I SH3 domain; remark: listed apart in the source

T7 sequence (Q62418 377-436): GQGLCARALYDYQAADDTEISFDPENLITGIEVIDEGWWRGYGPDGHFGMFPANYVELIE
T6 sequence (Q60598 488-546): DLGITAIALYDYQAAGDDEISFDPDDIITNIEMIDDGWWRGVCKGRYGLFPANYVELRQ
T8 sequence (Q61644 382-441): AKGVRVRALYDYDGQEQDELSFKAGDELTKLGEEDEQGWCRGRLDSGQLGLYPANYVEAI
T2 sequence (Q9Y5X1 1-62): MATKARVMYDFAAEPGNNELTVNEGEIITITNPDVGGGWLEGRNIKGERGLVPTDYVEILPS
T3 sequence (Q62420 290-349): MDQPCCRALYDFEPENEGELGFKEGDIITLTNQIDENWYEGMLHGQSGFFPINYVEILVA

B1: endogenous sheep brain dynamin I (enzyme)
chain: MGNRGMEDLIPLVNRLQDAFSAIGQNADLDLPQIAVVGGQSAGKSSVLENFVGRDFLPRGSGIVTRRPLVLQLVNATTEYAEFLHCKGKKFTDFEEVRLEIEAETDRVTGTNKGISPVPINLRVYSPHVLNLTLVDLPGMTKVPVGDQPPDIEFQIRDMLMQFVTKENCLILAVSPANSDLANSDALKVAKEVDPQGQRTIGVITKLDLMDEGTDARDVLENKLLPLRRGYIGVVNRSQKDIDGKKDITAALAAERKFFLSHPSYRHLADRMGTPYLQKVLNQQLTNHIRDTLPGLRNKLQSQLLSIEKEVEEYKNFRPDDPARKTKALLQMVQQFAVDFEKRIEGSGDQIDTYELSGGARINRIFHERFPFELVKMEFDEKELRREISYAIKNIHGIRTGLFTPDLAFEATVKKQVQKLKEPSIKCVDMVVSELTATIRKCSEKLQQYPRLREEMERIVTTHIREREGRTKEQVMLLIDIELAYMNTNHEDFIGFANAQQRSNQMNKKKASGNQDEILVIRKGWLTINNIGIMKGGSKEYWFVLTAENLSWYKDDEEKEKKYMLSVDNLKLRDVEKGFMSSKHIFALFNTEQRNVYKDYRQLELACETQEEVDSWKASFLRAGVYPERVGDKEKASETEENGSDSFMHSMDPQLERQVETIRNLVDSYMAIVNKTVRDLMPKTIMHLMINNTKEFIFSELLANLYSCGDQNTLMEESAEQAQRRDEMLRMYHALKEALSIIGDINTTTVSTPMPPPVDDSWLQVQSVPTGRRSPTSSPTPQRRAPAVPPARPGSRGPAPGPPPAGSALGGAPPVPSRPGASPDPFGPPPQVPSRPNRAPPGVPSRSGQASPSRPESPRPPFDL
- dynamin GTPase activity stimulated by the GST-SH3 domain (ELIPA, 30 mM NaCl), fold change relative to no SH3 [1]: 1.09 fold change
- dynamin GTPase activity stimulated by the GST-SH3 domain (ELIPA, 30 mM NaCl), fold change relative to no SH3 [2]: 5.12 fold change
- dynamin GTPase activity stimulated by the GST-SH3 domain (ELIPA, 30 mM NaCl), fold change relative to no SH3 [3]: 2.82 fold change
- dynamin GTPase activity stimulated by the GST-SH3 domain (ELIPA, 30 mM NaCl), fold change relative to no SH3 [4]: 2.1 fold change
- dynamin GTPase activity stimulated by the GST-SH3 domain (ELIPA, 30 mM NaCl), fold change relative to no SH3 [5]: 3.97 fold change
- dynamin GTPase activity stimulated by the GST-SH3 domain (ELIPA, 30 mM NaCl), fold change relative to no SH3 [6]: 0.83 fold change
- dynamin GTPase activity stimulated by the GST-SH3 domain (ELIPA, 30 mM NaCl), fold change relative to no SH3 (GST-cortactin SH3 domain [7]): 5.49 fold change
- dynamin GTPase activity stimulated by the GST-SH3 domain (ELIPA, 30 mM NaCl), fold change relative to no SH3 [8]: 1.83 fold change
- dynamin GTPase activity stimulated by the GST-SH3 domain (ELIPA, 30 mM NaCl), fold change relative to no SH3 [9]: 1.03 fold change
- dynamin GTPase activity stimulated by the GST-SH3 domain (ELIPA, 30 mM NaCl), fold change relative to no SH3 [10]: 14.7 fold change
- dynamin GTPase activity stimulated by the GST-SH3 domain (ELIPA, 30 mM NaCl), fold change relative to no SH3 [11]: 5.9 fold change
- dynamin GTPase activity stimulated by the GST-SH3 domain (ELIPA, 30 mM NaCl), fold change relative to no SH3 (GST-p85 SH3 domain [12]): 2.24 fold change
- dynamin GTPase activity stimulated by the GST-SH3 domain (ELIPA, 30 mM NaCl), fold change relative to no SH3 [13]: 5.32 fold change
- rate of dynamin GTPase activity stimulated by the GST-SH3 domain (ELIPA, 30 mM NaCl, basal rate subtracted) [14]: 0.001 μmoles Pi/mg of dyn/min
- rate of dynamin GTPase activity stimulated by the GST-SH3 domain (ELIPA, 30 mM NaCl, basal rate subtracted) [15]: 0.027 μmoles Pi/mg of dyn/min
- rate of dynamin GTPase activity stimulated by the GST-SH3 domain (ELIPA, 30 mM NaCl, basal rate subtracted) [16]: 0.012 μmoles Pi/mg of dyn/min
- rate of dynamin GTPase activity stimulated by the GST-SH3 domain (ELIPA, 30 mM NaCl, basal rate subtracted) [17]: 0.008 μmoles Pi/mg of dyn/min
- rate of dynamin GTPase activity stimulated by the GST-SH3 domain (ELIPA, 30 mM NaCl, basal rate subtracted) [18]: 0.016 μmoles Pi/mg of dyn/min
- rate of dynamin GTPase activity stimulated by the GST-SH3 domain (ELIPA, 30 mM NaCl, basal rate subtracted) [19]: 0 μmoles Pi/mg of dyn/min
- rate of dynamin GTPase activity stimulated by the GST-SH3 domain (ELIPA, 30 mM NaCl, basal rate subtracted) (GST-cortactin SH3 domain [20]): 0.031 μmoles Pi/mg of dyn/min
- rate of dynamin GTPase activity stimulated by the GST-SH3 domain (ELIPA, 30 mM NaCl, basal rate subtracted) [21]: 0.005 μmoles Pi/mg of dyn/min
- rate of dynamin GTPase activity stimulated by the GST-SH3 domain (ELIPA, 30 mM NaCl, basal rate subtracted) [22]: 0 μmoles Pi/mg of dyn/min
- rate of dynamin GTPase activity stimulated by the GST-SH3 domain (ELIPA, 30 mM NaCl, basal rate subtracted) [23]: 0.101 μmoles Pi/mg of dyn/min
- rate of dynamin GTPase activity stimulated by the GST-SH3 domain (ELIPA, 30 mM NaCl, basal rate subtracted) [24]: 0.033 μmoles Pi/mg of dyn/min
- rate of dynamin GTPase activity stimulated by the GST-SH3 domain (ELIPA, 30 mM NaCl, basal rate subtracted) (GST-p85 SH3 domain [25]): 0.009 μmoles Pi/mg of dyn/min
- rate of dynamin GTPase activity stimulated by the GST-SH3 domain (ELIPA, 30 mM NaCl, basal rate subtracted) [26]: 0.029 μmoles Pi/mg of dyn/min
